Legend:
[1] = biological target: T1, PUF4 RNA-binding domain (Pumilio homology domain) (Saccharomyces cerevisiae, UniProt P25339 537-888); assay: RNA-MaP; ddG 0.613; RNA-MaP: 20 mM Na-HEPES pH 7.4, 0.1% Tween-20, 5% glycerol, 0.1 mg/mL BSA, 2 mM DTT, low salt 0.75 mM MgCl2 + 30 mM KOAc (model data; high salt 2 mM MgCl2 + 100 mM KOAc), 25 C; conditions: protein: recombinant; tags: C-terminal SNAP tag, Cy3B-labeled; N-terminal His tag removed with TEV; label: array RNA; single-stranded
T1 sequence: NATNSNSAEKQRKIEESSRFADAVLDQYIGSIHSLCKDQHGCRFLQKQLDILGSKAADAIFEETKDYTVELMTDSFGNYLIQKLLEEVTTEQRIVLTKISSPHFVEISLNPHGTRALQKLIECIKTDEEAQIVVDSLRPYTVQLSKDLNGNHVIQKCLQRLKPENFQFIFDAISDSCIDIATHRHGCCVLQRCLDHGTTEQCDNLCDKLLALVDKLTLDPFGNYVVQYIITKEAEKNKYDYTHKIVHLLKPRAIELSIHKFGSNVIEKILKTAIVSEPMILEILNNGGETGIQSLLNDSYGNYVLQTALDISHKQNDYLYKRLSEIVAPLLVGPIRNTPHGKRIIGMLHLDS

[2] = biological target: T1, PUF4 RNA-binding domain (Pumilio …); assay: RNA-MaP; ddG 1.315; RNA-MaP: 20 mM Na-HEPES pH 7.4, 0.1% Tween-20, 5% glycerol, 0.1 mg/mL BSA, 2 mM DTT, low salt 0.75 mM MgCl2 + 30 mM KOAc (model data; high salt 2 mM MgCl2 + 100 mM KOAc), 25 C; conditions: protein: recombinant; tags: C-terminal SNAP tag, Cy3B-labeled; N-terminal His tag removed with TEV; label: array RNA; single-stranded
[3] = biological target: T1, PUF4 RNA-binding domain (Pumilio …); assay: RNA-MaP; ddG 1.663; RNA-MaP: 20 mM Na-HEPES pH 7.4, 0.1% Tween-20, 5% glycerol, 0.1 mg/mL BSA, 2 mM DTT, low salt 0.75 mM MgCl2 + 30 mM KOAc (model data; high salt 2 mM MgCl2 + 100 mM KOAc), 25 C; conditions: protein: recombinant; tags: C-terminal SNAP tag, Cy3B-labeled; N-terminal His tag removed with TEV; label: array RNA; single-stranded
[4] = biological target: T1, PUF4 RNA-binding domain (Pumilio …); assay: RNA-MaP; ddG 1.641; RNA-MaP: 20 mM Na-HEPES pH 7.4, 0.1% Tween-20, 5% glycerol, 0.1 mg/mL BSA, 2 mM DTT, low salt 0.75 mM MgCl2 + 30 mM KOAc (model data; high salt 2 mM MgCl2 + 100 mM KOAc), 25 C; conditions: protein: recombinant; tags: C-terminal SNAP tag, Cy3B-labeled; N-terminal His tag removed with TEV; label: array RNA; single-stranded
[5] = biological target: T1, PUF4 RNA-binding domain (Pumilio …); assay: RNA-MaP; ddG 1.018; RNA-MaP: 20 mM Na-HEPES pH 7.4, 0.1% Tween-20, 5% glycerol, 0.1 mg/mL BSA, 2 mM DTT, low salt 0.75 mM MgCl2 + 30 mM KOAc (model data; high salt 2 mM MgCl2 + 100 mM KOAc), 25 C; conditions: protein: recombinant; tags: C-terminal SNAP tag, Cy3B-labeled; N-terminal His tag removed with TEV; label: array RNA; single-stranded
[6] = biological target: T1, PUF4 RNA-binding domain (Pumilio …); assay: RNA-MaP; ddG 0.390; RNA-MaP: 20 mM Na-HEPES pH 7.4, 0.1% Tween-20, 5% glycerol, 0.1 mg/mL BSA, 2 mM DTT, low salt 0.75 mM MgCl2 + 30 mM KOAc (model data; high salt 2 mM MgCl2 + 100 mM KOAc), 25 C; conditions: protein: recombinant; tags: C-terminal SNAP tag, Cy3B-labeled; N-terminal His tag removed with TEV; label: array RNA; single-stranded
[7] = biological target: T1, PUF4 RNA-binding domain (Pumilio …); assay: RNA-MaP; ddG 0.961; RNA-MaP: 20 mM Na-HEPES pH 7.4, 0.1% Tween-20, 5% glycerol, 0.1 mg/mL BSA, 2 mM DTT, low salt 0.75 mM MgCl2 + 30 mM KOAc (model data; high salt 2 mM MgCl2 + 100 mM KOAc), 25 C; conditions: protein: recombinant; tags: C-terminal SNAP tag, Cy3B-labeled; N-terminal His tag removed with TEV; label: array RNA; single-stranded
[8] = biological target: T1, PUF4 RNA-binding domain (Pumilio …); assay: EMSA (active-fraction titration); high salt: 2 mM MgCl2, 100 mM KOAc; 69% active protein; RNA-MaP: 20 mM Na-HEPES pH 7.4, 0.1% Tween-20, 5% glycerol, 0.1 mg/mL BSA, 2 mM DTT, low salt 0.75 mM MgCl2 + 30 mM KOAc (model data; high salt 2 mM MgCl2 + 100 mM KOAc), 25 C; conditions: protein: recombinant; tags: C-terminal SNAP tag, Cy3B-labeled; N-terminal His tag removed with TEV; label: 32P (trace) plus unlabeled; single-stranded
[9] = biological target: T1, PUF4 RNA-binding domain (Pumilio …); assay: RNA-MaP; ddG 3.533; RNA-MaP: 20 mM Na-HEPES pH 7.4, 0.1% Tween-20, 5% glycerol, 0.1 mg/mL BSA, 2 mM DTT, low salt 0.75 mM MgCl2 + 30 mM KOAc (model data; high salt 2 mM MgCl2 + 100 mM KOAc), 25 C; conditions: protein: recombinant; tags: C-terminal SNAP tag, Cy3B-labeled; N-terminal His tag removed with TEV; label: array RNA; single-stranded
[10] = biological target: T1, PUF4 RNA-binding domain (Pumilio …); assay: RNA-MaP; ddG 3.923; RNA-MaP: 20 mM Na-HEPES pH 7.4, 0.1% Tween-20, 5% glycerol, 0.1 mg/mL BSA, 2 mM DTT, low salt 0.75 mM MgCl2 + 30 mM KOAc (model data; high salt 2 mM MgCl2 + 100 mM KOAc), 25 C; conditions: protein: recombinant; tags: C-terminal SNAP tag, Cy3B-labeled; N-terminal His tag removed with TEV; label: array RNA; single-stranded
[11] = biological target: T1, PUF4 RNA-binding domain (Pumilio …); assay: RNA-MaP; ddG 1.827; RNA-MaP: 20 mM Na-HEPES pH 7.4, 0.1% Tween-20, 5% glycerol, 0.1 mg/mL BSA, 2 mM DTT, low salt 0.75 mM MgCl2 + 30 mM KOAc (model data; high salt 2 mM MgCl2 + 100 mM KOAc), 25 C; conditions: protein: recombinant; tags: C-terminal SNAP tag, Cy3B-labeled; N-terminal His tag removed with TEV; label: array RNA; single-stranded
[12] = biological target: T1, PUF4 RNA-binding domain (Pumilio …); assay: RNA-MaP; ddG 0.934; RNA-MaP: 20 mM Na-HEPES pH 7.4, 0.1% Tween-20, 5% glycerol, 0.1 mg/mL BSA, 2 mM DTT, low salt 0.75 mM MgCl2 + 30 mM KOAc (model data; high salt 2 mM MgCl2 + 100 mM KOAc), 25 C; conditions: protein: recombinant; tags: C-terminal SNAP tag, Cy3B-labeled; N-terminal His tag removed with TEV; label: array RNA; single-stranded
[13] = biological target: T1, PUF4 RNA-binding domain (Pumilio …); assay: RNA-MaP; ddG 1.591; RNA-MaP: 20 mM Na-HEPES pH 7.4, 0.1% Tween-20, 5% glycerol, 0.1 mg/mL BSA, 2 mM DTT, low salt 0.75 mM MgCl2 + 30 mM KOAc (model data; high salt 2 mM MgCl2 + 100 mM KOAc), 25 C; conditions: protein: recombinant; tags: C-terminal SNAP tag, Cy3B-labeled; N-terminal His tag removed with TEV; label: array RNA; single-stranded
[14] = biological target: T1, PUF4 RNA-binding domain (Pumilio …); assay: RNA-MaP; ddG 0.243; RNA-MaP: 20 mM Na-HEPES pH 7.4, 0.1% Tween-20, 5% glycerol, 0.1 mg/mL BSA, 2 mM DTT, low salt 0.75 mM MgCl2 + 30 mM KOAc (model data; high salt 2 mM MgCl2 + 100 mM KOAc), 25 C; conditions: protein: recombinant; tags: C-terminal SNAP tag, Cy3B-labeled; N-terminal His tag removed with TEV; label: array RNA; single-stranded
[15] = biological target: T1, PUF4 RNA-binding domain (Pumilio …); assay: RNA-MaP; ddG 1.467; RNA-MaP: 20 mM Na-HEPES pH 7.4, 0.1% Tween-20, 5% glycerol, 0.1 mg/mL BSA, 2 mM DTT, low salt 0.75 mM MgCl2 + 30 mM KOAc (model data; high salt 2 mM MgCl2 + 100 mM KOAc), 25 C; conditions: protein: recombinant; tags: C-terminal SNAP tag, Cy3B-labeled; N-terminal His tag removed with TEV; label: array RNA; single-stranded
[16] = biological target: T1, PUF4 RNA-binding domain (Pumilio …); assay: RNA-MaP; ddG 3.256; RNA-MaP: 20 mM Na-HEPES pH 7.4, 0.1% Tween-20, 5% glycerol, 0.1 mg/mL BSA, 2 mM DTT, low salt 0.75 mM MgCl2 + 30 mM KOAc (model data; high salt 2 mM MgCl2 + 100 mM KOAc), 25 C; conditions: protein: recombinant; tags: C-terminal SNAP tag, Cy3B-labeled; N-terminal His tag removed with TEV; label: array RNA; single-stranded

UCUCUUUGUAUAUCAUCUCUU (ssRNA) [S1a K4.1 T8C] was tested, and the Kd [1] was -11 ± 0.259 kcal/mol (dG=RTlnKd).

For UCUCUUUGUAAAUAUCUCUU (ssRNA) [S1a K3.1 T5A], the Kd [2] was -10.3 ± 0.252 kcal/mol (dG=RTlnKd).

UCUCUUUGUAUAAAUCUCUU (ssRNA) [S1a K3.1 T7A] was tested, and the Kd [3] was -9.96 ± 0.7 kcal/mol (dG=RTlnKd).

With UCUCUUUGUAUCUAUCUCUU (ssRNA) [S1a K3.1 A6C] the Kd [4] was -9.98 ± 0.415 kcal/mol (dG=RTlnKd).

UCUCUUUGUAUAUGUCUCUU (ssRNA) [S1a K3.1 A8G] was tested, and the Kd [5] was -10.6 ± 0.24 kcal/mol (dG=RTlnKd).

For UCUCUUUGUACAUAUCUCUU (ssRNA) [S1a K3.1 T5C], the Kd [6] was -11.2 ± 0.37 kcal/mol (dG=RTlnKd).

In the case of UCUCUUUGUAUAUGAUCUCUU (ssRNA) [S1a K4.1 T8G], the Kd [7] is reported as -10.7 ± 0.299 kcal/mol (dG=RTlnKd).

AUGUGUAUAUUAGU (ssRNA) [consensus RNA 14-mer]: binds [8].

UCUCUUCGUAUAUAUCUCUU (ssRNA) [S1a K3.1 T1C] was tested, and the Kd [9] was -8.09 ± 0.575 kcal/mol (dG=RTlnKd).

In the case of UCUCUUGGUAUAUAUCUCUU (ssRNA) [S1a K3.1 T1G], the Kd [10] is reported as -7.7 ± 0.635 kcal/mol (dG=RTlnKd).

In the case of UCUCUUUGUAUGUAUCUCUU (ssRNA) [S1a K3.1 A6G], the Kd [11] is reported as -9.79 ± 0.309 kcal/mol (dG=RTlnKd).

In the case of UCUCUUUGUAUAUCUCUCUU (ssRNA) [S1a K3.1 A8C], the Kd [12] is reported as -10.7 ± 0.225 kcal/mol (dG=RTlnKd).

For UCUCUUUGUAUACAUCUCUU (ssRNA) [S1a K3.1 T7C], the Kd [13] was -10 ± 0.544 kcal/mol (dG=RTlnKd).

In the case of UCUCUUUGUAUAUUUCUCUU (ssRNA) [S1a K3.1 A8T], the Kd [14] is reported as -11.4 ± 0.257 kcal/mol (dG=RTlnKd).

In the case of UCUCUUUGUAUUUAUCUCUU (ssRNA) [S1a K3.1 A6T], the Kd [15] is reported as -10.2 ± 0.227 kcal/mol (dG=RTlnKd).

UCUCUUAGUAUAUAUCUCUU (ssRNA) [S1a K3.1 T1A] was tested, and the Kd [16] was -8.36 ± 0.617 kcal/mol (dG=RTlnKd).

— article PMC9352680, “A comprehensive thermodynamic model for RNA binding by the Saccharomyces cerevisiae Pumilio protein PUF4”
